Assay results from patent US8241646B2, “Method for generating active antibodies against a resistance antigen, antibodies obtained by said method and their uses” (Pierre Fabre Medicament, priority 2006, dated 2012).

Experiments:
[1] = system: different cell lines; assay: Recognition of different cell lines by the antibodies with the FACSCAN instrument; type: cell-based; conditions: FACSCAN analysis of a panel of tumor lines
Description: The hybridomas secreting antibodies recognizing the resistant tissues, and recognizing neither the tumors from the control batch PBS nor the native A549 cell which was used for establishing the tumor in vivo, are cloned and frozen. The antibodies are then produced in ascite liquid, purified, retested in immunohistochemistry before being tested in vivo on cells expressing a surface structure or antigen recognized by the antibodies (these cells were selected beforehand by FACSCAN analysis of a non-exhaustive panel of tumor lines available for each antibody).
Table 6 below as for it, groups the cells recognized by these antibodies (Recognition of the antibodies selected in histology with the FACSCAN instrument, of different cell lines).

[2] = system: BxPC3 cells; assay: Pancreas xenograft model BxPC3; type: in vivo, athymic "Nude" mice; conditions: 1 mg/dose two times a week; results in FIG. 7
Protocol: 10.10^6 BxPC3 cells are grafted on athymic “Nude” mice. Five days after the grafting, the tumors are measurable and the mice are divided into two batches of six mice with tumors of homogenous size. The mice are either treated with PBS (negative control) or with the antibody 2E11 (1 mg/dose), two times a week. Tumor volume tracking is carried out twice a week.
The results are illustrated in FIG. 7.

B1: 1A6: monoclonal antibody, heavy chain SEQ ID No. 7, light chain SEQ ID No. 8; hybridoma CNCM I-3612; IgM k (antibody, V domains shown)
VH: EVQLQQSGPELVKPGASVKISCKTSGYTFTEYTLHWVKQSHGKSLEWIGGIDPNNGGTSYNQKFKGKATLTVDKSSSTAYMELRSLTSEDSAVYLCARSNSYYFDYWGQGTTLTVSS
VL: DIQMTQTTSSLSASLGDSVTISCRARQDIRNFLNWYQQRPDGTVKLLIYYTSRLHSGVPSRFSGSGSGTDYSLTISNLDQEDVATYFCQQGNTLPFTFGSGTKLEIK
modifications: mus musculus
notes: hybridoma CNCM I-3612; IgM k
- In vivo model (cells recognized by these antibodies) ([1]; clone D10): LnCap/HT29

B2: 3C11: monoclonal antibody, heavy chain SEQ ID No. 31, light chain SEQ ID No. 32; hybridoma CNCM I-3614; IgM k (antibody, V domains shown)
VH: QVQLKESGPGLVAPSQSLSITCTVSGFSLSSYGVHWVRQPPGKGLEWLGVIWVGGTTNFKSALMSRLSISKDNSKSQVFLKMNSLQTDDTAMYYCARERPYGNPLVDWGQGTLVTVSA
VL: DIVMTQSHKFMSTSVGDRVSITCKASQDVSTAVAWYQQKPGQSPKLLIYSASYRYTGVPDRFTGSGSGTDFTFTISSVQAEDLAVYYCQQHYSNPRTFGGGTKLEIK
modifications: mus musculus
notes: hybridoma CNCM I-3614; IgM k
- In vivo model (cells recognized by these antibodies) [1]: Colo205

B3: 1A9: monoclonal antibody, heavy chain SEQ ID No. 15, light chain SEQ ID No. 16; hybridoma CNCM I-3613; IgG1 k (antibody, V domains shown)
VH: QIQLVQSGPELKKPGETVKISCKASGQTFTNYGMNWVKQAPGKGLKWMGWINTYTGEPTYADDFKGRFAFSLETSASTAYLQINNLKNEDTATYFCARGGYYRYAAYWGQGTLVTVSA
VL: DIQMTQSPASLSASVGETVTITCRASGNIHNYLAWYQQKQGKSPQLLVYNAKTLADGVPSRFSGSGSGTQYSLKINSLQPEDFGCYFCQHFWTTPYTFGGGTKLELI
modifications: mus musculus
notes: hybridoma CNCM I-3613; IgG1 k
- In vivo model (cells recognized by these antibodies) [1]: HepG2/H69/LnCap

B4: 3G7: monoclonal antibody, heavy chain SEQ ID No. 39, light chain SEQ ID No. 40; hybridoma CNCM I-3616; IgM (antibody, V domains shown)
VH: QVQLQQSGPELVRPGTSVKISCKASGYTFTNYWLGWVKQRPGHGLEWIGDIFPGGIYTNYNEKIKGEATLTADTSSSTAYLQLSSLTSEDSFVYFCARFDDFDPFFASWGQGTLVTVSA
VL: DVLMTQTPLSLPVSLGDQASISCRSSQTIVHSNGNTYLEWYLQKPGQSPKLLIYKVSNRFSGVPDRFSGSGSGTDFTLNISRVEAEDLGIYYCFQSSRVPYTFGGGTKLEIK
modifications: mus musculus
notes: hybridoma CNCM I-3616; IgM
- In vivo model (cells recognized by these antibodies) [1]: DU145

B5: 2E11: monoclonal antibody, heavy chain SEQ ID No. 23, light chain SEQ ID No. 24; hybridoma CNCM I-3615; IgG1 k (antibody, V domains shown)
VH: EVQLQQSGAEVVKPGASVKLSCTASGFNIKDTYMHWVKQRPEQGLEWIGRIDPANGNTKSDPKFQGKAIKTADTSSNTAYLQLSSLTSEDTAVYYCTSGYTNYVWFTYWGQGTLVTVSA
VL: DIVMSQSPSSLAVAAGEKVTMSCKASQSLLNSRTRKNYLAWYQQKPGQSPKLLIYWASTRESGVPDRFTGSGSGTDFSLTISSVQAEDLAVYYCKQSYNLYTFGGGTKLEIK
modifications: mus musculus
notes: hybridoma CNCM I-3615; IgG1 k
- In vivo model (cells recognized by these antibodies) [1]: HT29/BxPC3/H69
- anti-tumoral activity (tumor volume) [2]: validate the functional activity
